Experimental data published in paper PMC6553528, “An Interaction Network of the Human SEPT9 Established by Quantitative Mass Spectrometry” (G3: Genes|Genomes|Genetics, 2019).

T1: 6his-SEPT9 (human, UniProt Q9UHD8 2-586)
T1 construct: SEPT9 isoform 1 (SEPT9_i1), human; PCR amplified from the GFP-SEPT9_i1 plasmid and cloned into the in-house plasmid pES; The forward primer reads ENLYFQG (a TEV site, surmised) followed by KKSYSGG, i.e. SEPT9 from its second codon; the reverse primer ends with PEAPEM and stop codons; also called 6his-tagged SEPT9; 6his tagged SEPT9; source: E. coli, purified (IMAC, approx. 70% purity; desalted …)
T1 sequence (looked up): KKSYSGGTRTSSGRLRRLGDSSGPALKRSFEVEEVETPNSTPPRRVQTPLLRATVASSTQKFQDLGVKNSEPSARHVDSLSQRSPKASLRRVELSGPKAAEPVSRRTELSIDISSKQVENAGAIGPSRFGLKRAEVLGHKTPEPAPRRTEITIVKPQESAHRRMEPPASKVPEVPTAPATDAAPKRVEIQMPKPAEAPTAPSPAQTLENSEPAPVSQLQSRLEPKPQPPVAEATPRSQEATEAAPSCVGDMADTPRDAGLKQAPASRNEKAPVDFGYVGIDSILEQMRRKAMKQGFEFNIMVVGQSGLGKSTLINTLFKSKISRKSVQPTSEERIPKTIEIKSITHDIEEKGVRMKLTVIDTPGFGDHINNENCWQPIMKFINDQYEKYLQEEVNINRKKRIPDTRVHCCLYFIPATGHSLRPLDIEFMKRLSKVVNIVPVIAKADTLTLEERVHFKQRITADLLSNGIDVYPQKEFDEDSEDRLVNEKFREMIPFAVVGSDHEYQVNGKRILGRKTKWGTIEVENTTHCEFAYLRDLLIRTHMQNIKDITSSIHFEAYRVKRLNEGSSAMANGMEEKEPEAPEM


Target: T1, 6his-SEPT9
Test: pull-down; GST fusion proteins immobilized on Glutathione Sepharose from the crude extract, incubated with 2 µM 6his-SEPT9 for 1 h in PBS; Western blot with anti-6his and anti-GST
Settings: both partners purified

| binding result | Binder |
| --- | --- |
| binds | GST-MYO6_(835-1294) (domain or fragment, UniProt Q9UM54 835-1294, looked up, Cloned in pGEX2T; also called C-terminal tail fragment of MYO6; source: E. coli, immobilized on Glutathione Sepharose from the crude extract; not shown: GST, N-terminal, kept) PRIDGLVKVGTLKKRLDKFNEVVSVLKDGKPEMNKQIKNLEISIDTLMAKIKSTMMTQEQIQKEYDALVKSSEELLSALQKKKQQEEEAERLRRIQEEMEKERKRREEDEKRRRKEEEERRMKLEMEAKRKQEEEERKKREDDEKRIQAEVEAQLARQKEEESQQQAVLEQERRDRELALRIAQSEAELISDEAQADLALRRSLDSYPVSKNDGTRPKMTPEQMAKEMSEFLSRGPAVLATKAAAGTKKYDLSKWKYAELRDTINTSCDIELLAACREEFHRRLKVYHAWKSKNKKRNTETEQRAPKSVTDYDFAPFLNNSPQQNPAAQIPARQREIEMNRQQRFFRIPFIRPADQYKDPQSKKKGWWYAHFDGPWIARQMELHPDKPPILLVAGKDDMEMCELNLEETGLTRKRGAEILPRQFEEIWERCGGIQYLQNAIESRQARPTYATAMLQSLLK |
| binds | GST-MYO1C_(809-1063) (domain or fragment, human, UniProt O00159 809-1063, looked up, Unconventional myosin-Ic (MYO1C), C-terminal tail fragment, amino acids 809-1063, amplified from cDNA of 1306 fibroblast mRNA; Cloned in pGEX2T; also called C-terminal tail fragment of MYO1C; source: E. coli, immobilized on Glutathione Sepharose from the crude extract; not shown: GST, N-terminal, kept) LDHVRTSFLLNLRRQLPQNVLDTSWPTPPPALREASELLRELCIKNMVWKYCRSISPEWKQQLQQKAVASEIFKGKKDNYPQSVPRLFISTRLGTDEISPRVLQALGSEPIQYAVPVVKYDRKGYKPRSRQLLLTPNAVVIVEDAKVKQRIDYANLTGISVSSLSDSLFVLHVQRADNKQKGDVVLQSDHVIETLTKTALSANRVNSININQGSITFAGGPGRDGTIDFTPGSELLITKAKNGHLAVVAPRLNSR |
